Laboratory results taken from US7674958B2 (Athenix Corporation, priority 2005, dated 2010).

Experiments:
Format in all cases: cell-based
[1] = test system: E. coli cells containing pAX1967 (GRG51); experiment: Glyphosate screen on M63+ plates, GRG51-expressing cells; settings: 2 days, 37° C.
Experimental: Cells containing pAX1967 were plated onto M63+ plates containing antibiotic and either 0 mM or 20 mM glyphosate. Growth was scored after two days growth at 37° C.

[2] = test system: E. coli strain DH5α with pUC18-Grg23 (pAX1927); experiment: Growth on glyphosate plates, grg23-expressing cells; settings: concentration to which resistance is conferred
Experimental: Isopropyl-B-D-thiogalactopyranoside (IPTG; 0.1 mM) was also added to the plates. As a control, cells containing pUC18 vector alone were transformed and streaked onto glyphosate plates.

BL21*DE3 E. coli cells = experiment: Selection of mutant GRG23 enzymes conferring glyphosate resistance in E. coli on 150 mM glyphosate plates; settings: clones selected on 150 mM glyphosate; extract activity equal to or superior to GRG23
Experimental: The mutagenized syngrg23 libraries were transformed into E. coli strain BL21*DE3 star (Invitrogen). Following transformation, individual colonies were plated on 1× M63 medium containing 150 mM glyphosate to select for clones that had retained enzymatic activity and growth tolerance.
The plates were incubated for 36 hours at 37° C.
Library plates of extracts of mutagenized syngrg23 clones were assayed for improved enzymatic activity as follows: Library clones were pinned into 96-well blocks containing LB medium and were grown to an O.D. of about 0.6. IPTG was then added (0.5 mM) and the blocks were incubated overnight at 20° C. to induce protein expression. Protein extracts were prepared from the cell pellets using POP culture reagent (Novagen), and the enzymatic activity in the crude lysates was measured. […] The DNA sequences of the clones corresponding to these extracts were determined.

Molecule | resistance to glyphosate [1] [mM] | glyphosate resistance [2] | Glyphosate resistance of GRG23 variants (BL21*DE3 E. coli cells)
O=C(O)CNCP(=O)(O)O [glyphosate, N-phosphonomethylglycine] | 20 | at least 100 mM | –
GRG23(L3P1.B20): GRG23 variant (SEQ ID NO:27), V206→I (protein, grg23(L3P1.B20)) METDRLVIPGSKSITNRALLLAAAAKGTSVLVRPLVSADTSAFKTAIQALGANVSADGDNWVVEGLGQAPHLDADIWCEDAGTVARFLPPFVAAGQGKFTVDGSEQLRRRPLRPLVDGIRHLGARVSSEQLPLTIEASGLAGGEYEIEAHQSSQFASGLIMAAPYARQGLRVRIPNPVSQPYLTMTLRMMRDFGLETSTDGATVSIPPGRYTARRYEIEPDASTASYFAAASAVSGRSFEFQGLGTDSIQGDTSFFNVLGRLGAEVHWAPNSVTISGPERLNGDIEVDMGEISDTFMTLAAIAPLADGPITITNIGHARLKESDRISAMETNLRTLGVQTDVGHDWMRIYPSTPHGGRVNCHRDHRIAMAFSILGLRVDGITLDDPQCVGKTFPGFFDYLGRLFPEKALTLPG | – | – | retained glyphosate resistance
GRG23(L3P1.B3): GRG23 variant (SEQ ID NO:29), D75→H, E217→K (protein, grg23(L3P1.B3)) METDRLVIPGSKSITNRALLLAAAAKGTSVLVRPLVSADTSAFKTAIQALGANVSADGDNWVVEGLGQAPHLDAHIWCEDAGTVARFLPPFVAAGQGKFTVDGSEQLRRRPLRPLVDGIRHLGARVSSEQLPLTIEASGLAGGEYEIEAHQSSQFASGLIMAAPYARQGLRVRIPNPVSQPYLTMTLRMMRDFGLETSTDGATVSVPPGRYTARRYKIEPDASTASYFAAASAVSGRSFEFQGLGTDSIQGDTSFFNVLGRLGAEVHWAPNSVTISGPERLNGDIEVDMGEISDTFMTLAAIAPLADGPITITNIGHARLKESDRISAMETNLRTLGVQTDVGHDWMRIYPSTPHGGRVNCHRDHRIAMAFSILGLRVDGITLDDPQCVGKTFPGFFDYLGRLFPEKALTLPG | – | – | retained glyphosate resistance
GRG23(L3P1.F18): GRG23 variant (SEQ ID NO:31), T274→I (protein, grg23(L3P1.F18)) METDRLVIPGSKSITNRALLLAAAAKGTSVLVRPLVSADTSAFKTAIQALGANVSADGDNWVVEGLGQAPHLDADIWCEDAGTVARFLPPFVAAGQGKFTVDGSEQLRRRPLRPLVDGIRHLGARVSSEQLPLTIEASGLAGGEYEIEAHQSSQFASGLIMAAPYARQGLRVRIPNPVSQPYLTMTLRMMRDFGLETSTDGATVSVPPGRYTARRYEIEPDASTASYFAAASAVSGRSFEFQGLGTDSIQGDTSFFNVLGRLGAEVHWAPNSVIISGPERLNGDIEVDMGEISDTFMTLAAIAPLADGPITITNIGHARLKESDRISAMETNLRTLGVQTDVGHDWMRIYPSTPHGGRVNCHRDHRIAMAFSILGLRVDGITLDDPQCVGKTFPGFFDYLGRLFPEKALTLPG | – | – | retained glyphosate resistance
